Results as given in patent US20250333496A1 (Novo Nordisk, published 2025).
Where a chain is given by its changes, count along the chain named. Several values for one entry are separate records, joined by “and”; a condition that tells them apart may be missing. Equal entries are not always repeated.

B1: Polypeptide_3 (VHH)
VHH: QVQLQESGGGLVQAGGSLRLSCTTSGRTFSSYAMGWFRQAPGKEREFVADIGENADNRWYAHSVKGRFTISRDNAKNTVYLQMNSLKPEDTAVYYCAADRYGVGGGAQGYYDSWGQGTQVTVSS
notes: VHH_2.3 with C-terminal His tag extension E1; also called [VHH_2.3]-E1
B2: Polypeptide_61 (VHH)
VHH: EVQLVESGGGLVQPGGSLKLSCTTSGRRFSEYAVGWFRQAPGKEREFVADIGEQAENTWYAESVLGRFTISRDDAKNTVYLEMDGLKPEDTAVYYCAADSYGVGGNAQGYYDSWGQGTQVTVSS
B3: Polypeptide_57 (VHH)
VHH: B2 VHH with L65K, S100K
B4: Polypeptide_49 (VHH)
VHH: B2 VHH with E1Q, S100K
B5: Polypeptide_52 (VHH)
VHH: B2 VHH with R28T, S100K
B6: Polypeptide_62 (VHH)
VHH: B2 VHH with S100K, N106G
B7: Polypeptide_53 (VHH)
VHH: B2 VHH with E31S, S100K
B8: Polypeptide_60 (VHH)
VHH: B2 VHH with G85S, S100K
B9: Polypeptide_58 (VHH)
VHH: B2 VHH with D74N, S100K
B10: Polypeptide_55 (VHH)
VHH: B2 VHH with E56D, S100K
B11: Polypeptide_54 (VHH)
VHH: B2 VHH with Q54N, S100K
B12: Polypeptide_56 (VHH)
VHH: B2 VHH with E62H, S100K
B13: Polypeptide_50 (VHH)
VHH: B2 VHH with V2L, S100K
B14: Polypeptide_51 (VHH)
VHH: B2 VHH with L11W, S100K
B15: Polypeptide_59 (VHH)
VHH: B2 VHH with D84N, S100K
B16: Compound 2 (VHH)
VHH: EVQLVESGGGLVQAGGSLQLSCTASGGTFSEYAMAWFRQAPGQEREFVTDIGESGGTWYADSVKGRFTISRDNAKNTVYLQMDSLRPEDTAVYYCAADSYGVGGGAERYYDSWGQGTQVTVSS
modifications: Chem. 24 (C16 diacid substituent) on Cys in position 4 and on Cys in position 6 of the extension (SEQ ID NO: 72)
notes: Polypeptide derivative; extension E2 at the C-terminus of the VHH; also called VHH_1.13-E2 with 2x Chem. 24
B17: Polypeptide_22 (VHH)
VHH: B2 VHH with A40G, E82Q, G85S, S100K
notes: VHH_1.2 with C-terminal His tag extension E1; also called [VHH_1.2]-E1
B18: Polypeptide_46 (VHH)
VHH: B2 VHH with E1Q, V2L, L11W, K19Q, K43Q, E62H, D74E, E82Q, G85S, S100K
B19: Compound 3 (VHH)
VHH: B2 VHH with E1Q, V2L, L11W, K19Q, K43Q, E62H, D74E, E82Q, G85S, S100K
modifications: Chem. 24 (C16 diacid substituent) on Cys in position 4 and on Cys in position 6 of the extension (SEQ ID NO: 72); found mass includes position 1 Gln to pyroGlu formation
B20: Compound 6 (VHH)
VHH: B2 VHH with K19Q, A40G, E62H, E82Q, G85S, S100K
modifications: Chem. 24 (C16 diacid substituent) on Cys in position 4 and on Cys in position 6 of the extension (SEQ ID NO: 72)
notes: Polypeptide derivative; extension E2 at the C-terminus of the VHH; also called VHH_1.3-E2 with 2x Chem. 24
B21: Compound 10 (VHH)
VHH: B2 VHH with K19Q, R28K, S30D, A40G, K43Q, Q54N, S100K
modifications: Chem. 24 (C16 diacid substituent) on Cys in position 4 and on Cys in position 6 of the extension (SEQ ID NO: 72)
notes: Polypeptide derivative; extension E2 at the C-terminus of the VHH; also called VHH_1.7-E2 with 2x Chem. 24
B22: Polypeptide_31 (VHH)
VHH: B2 VHH with K19Q, R28K, S30D, A40G, K43Q, Q54N, S100K
notes: VHH_1.7 with C-terminal His tag extension E1; also called [VHH_1.7]-E1
B23: Polypeptide_24 (VHH)
VHH: B2 VHH with K19Q, A40G, E62H, E82Q, G85S, S100K
notes: VHH_1.3 with C-terminal His tag extension E1; also called [VHH_1.3]-E1
B24: Polypeptide_47 (VHH)
VHH: B2 VHH with E1Q, V2L, L11W, E62H, D74E, E82Q, D84N, G85S, S100K
notes: VHH_1.15 with C-terminal His tag extension E1; also called [VHH_1.15]-E1
B25: Polypeptide_27 (VHH)
VHH: B2 VHH with K19Q, R28K, S30D, Q54N, E62H, E82Q, G85S, S100K
notes: VHH_1.4 with C-terminal His tag extension E1; also called [VHH_1.4]-E1
B26: Compound 7 (VHH)
VHH: B2 VHH with K19Q, R28K, S30D, Q54N, E62H, E82Q, G85S, S100K
modifications: Chem. 24 (C16 diacid substituent) on Cys in position 4 and on Cys in position 6 of the extension (SEQ ID NO: 72)
notes: Polypeptide derivative; extension E2 at the C-terminus of the VHH; also called VHH_1.4-E2 with 2x Chem. 24
B27: Compound 8 (VHH)
VHH: B2 VHH with K19Q, R28K, S30D, A40G, Q54N, E82Q, G85S, S100K
modifications: Chem. 24 (C16 diacid substituent) on Cys in position 4 and on Cys in position 6 of the extension (SEQ ID NO: 72)
notes: Polypeptide derivative; extension E2 at the C-terminus of the VHH; also called VHH_1.5-E2 with 2x Chem. 24
B28: Compound 5 (VHH)
VHH: B2 VHH with A40G, E82Q, G85S, S100K
modifications: Chem. 24 (C16 diacid substituent) on Cys in position 4 and on Cys in position 6 of the extension (SEQ ID NO: 72)
notes: Polypeptide derivative; extension E2 at the C-terminus of the VHH; also called VHH_1.2-E2 with 2x Chem. 24
B29: Compound 9 (VHH)
VHH: B2 VHH with S100K
modifications: Chem. 24 (C16 diacid substituent) on Cys in position 4 and on Cys in position 6 of the extension (SEQ ID NO: 72)
notes: Polypeptide derivative; extension E2 at the C-terminus of the VHH; also called VHH_1.6-E2 with 2x Chem. 24; Chem. 31
B30: Polypeptide_28 (VHH)
VHH: B2 VHH with K19Q, R28K, S30D, A40G, Q54N, E82Q, G85S, S100K
notes: VHH_1.5 with C-terminal His tag extension E1; also called [VHH_1.5]-E1
B31: Compound 4 (VHH)
VHH: B2 VHH with L11W, K19Q, K43Q, E62H, D74E, E82Q, G85S, S100K
modifications: Chem. 24 (C16 diacid substituent) on Cys in position 4 and on Cys in position 6 of the extension (SEQ ID NO: 72)
notes: Polypeptide derivative; extension E2 at the C-terminus of the VHH; also called VHH_1.1-E2 with 2x Chem. 24
B32: Compound 12 (VHH)
VHH: EVQLVESGGGLVQPGGSLQLSCAASGFTFSNYWMYWVRQAPGQGLEWVSGINTGGSTPDYADSVKGRFAISRDNAKNTLYLQMDSLRPEDTAVYYCAADTPRVFRLDHYSPLGQGTQVTVSS
modifications: Chem. 24 (C16 diacid substituent) on Cys in position 4 and on Cys in position 6 of the extension (SEQ ID NO: 72)
notes: Polypeptide derivative; extension E2 at the C-terminus of the VHH; also called VHH_1.17-E2 with 2x Chem. 24
B33: Compound 1 (VHH)
VHH: B1 VHH with V2L, Q5V, L11W, A14P, R19Q, M34V, K43Q, R58T, N84D, R100S
modifications: Chem. 24 (C16 diacid substituent) on Cys in position 4 and on Cys in position 6 of the extension (SEQ ID NO: 72)
notes: Polypeptide derivative; extension E2 at the C-terminus of the VHH; also called VHH_1.12-E2 with 2x Chem. 24

Target: T1, human IL-6 (mature hIL-6) (human, UniProt P05231 30-212)
T1 sequence (P05231 30-212): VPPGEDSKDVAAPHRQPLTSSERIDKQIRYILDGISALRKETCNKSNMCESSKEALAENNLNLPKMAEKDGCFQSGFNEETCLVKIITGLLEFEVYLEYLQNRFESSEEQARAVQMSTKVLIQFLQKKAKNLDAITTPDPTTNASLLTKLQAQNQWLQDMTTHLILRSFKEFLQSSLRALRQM
Test: cell-based or functional assay

| Binder | Reporter gene-assay [pM] |
| --- | --- |
| B1 | 39.8 |

Target: T1, human IL-6 (mature hIL-6)
Test: cell-based or functional assay
Remark: another data set of the same source

| Binder | IC50 (nM), STAT3-luc reporter gene assay [nM] | Relative IC50 to Reference Polypeptide_29 [fold] |
| --- | --- | --- |
| B2 | 0.054 | 1.6 |
| B3 | 0.08 | 2.3 |
| B4 | 0.051 | 1.5 |
| B5 | 0.055 | 1.6 |
| B6 | 0.13 | 3.8 |
| B7 | 0.05 | 1.5 |
| B8 | 0.057 | 1.7 |
| B9 | 0.047 | 1.4 |
| B10 | 0.278 | 8.1 |
| B11 | 0.15 | 4.4 |
| B12 | 0.168 | 4.9 |
| B13 | 0.049 | 1.4 |
| B14 | 0.053 | 1.5 |
| B15 | 0.043 | 1.2 |

Target: T1, human IL-6 (mature hIL-6)
Test: cell-based or functional assay
Remark: another data set of the same source

| Binder | IC 50 (nM), reporter gene assay, 0% HSA [nM] | IC 50 (nM), reporter gene assay, 1% HSA [nM] |
| --- | --- | --- |
| B16 | 0.065 | 0.041 |
| B17 | 0.029 |  |
| B18 | 0.021 |  |
| B19 | 0.029 | 0.029 |
| B20 | 0.018 | 0.016 |
| B21 | 0.022 | 0.016 |
| B22 | 0.023 |  |
| B23 | 0.019 |  |
| B24 | 0.017 | 0.01 |
| B25 | 0.026 |  |
| B26 | 0.025 | 0.019 |
| B27 | 0.02 | 0.017 |
| B28 | 0.019 | 0.012 |
| B29 | 0.022 | 0.014 |
| B30 | 0.027 |  |
| B31 | 0.024 | 0.015 |
| B32 |  | 0.021 |
| B33 | 0.029 | 0.06 |

Target: T1, human IL-6 (mature hIL-6)
Test: SPR (format not stated)

| Binder | Kd [nM] |
| --- | --- |
| B1 | 0.872 |

Target: T2, recombinant human HPC4-tagged IL-6 (human, UniProt P05231 30-212)
T2 construct: captured on an anti-HPC4 antibody in SPR; also called HPC4-human IL6
T2 sequence (P05231 other isoform, or with tags, fused parts or gaps limits assumed): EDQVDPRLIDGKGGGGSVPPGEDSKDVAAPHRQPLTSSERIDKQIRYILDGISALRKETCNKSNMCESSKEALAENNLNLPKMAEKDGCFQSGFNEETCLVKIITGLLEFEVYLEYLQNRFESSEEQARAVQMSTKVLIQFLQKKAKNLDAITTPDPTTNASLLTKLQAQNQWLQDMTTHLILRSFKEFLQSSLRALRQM
Test: SPR, HPC4-IL-6 captured on anti-HPC4 antibody, VHH injected, 25 C, 1:1 model
Protocol: Binding of purified anti-IL-6 VHHs to recombinant human HPC4-tagged IL-6 (SEQ ID NO: 98) was probed by Surface Plasmon Resonance (SPR).
IL-6 was captured at a flow rate of 10 μL/min for 30 seconds.
Subsequently, concentration series of VHH polypeptides according to Table 33 were injected at a flow rate of 50 μL/min for 200 seconds to allow for binding to […] followed by 600 seconds running buffer (10 mM HEPES, 150 mM NaCl, 5 mM CaCl₂, 0.05% (v/v) Surfactant P20, 1 mg/mL bovine serum albumin, pH 7.4) injection allowing dissociation from IL-6. The running buffer was also used for dilution of anti-IL-6 VHHs and IL-6. Regeneration of the chip was achieved using a regeneration buffer consisting of 50 mM EDTA in running buffer without CaCl₂, 30 seconds contact time, and a 30 μL/min flow rate applied twice to the surface. The binding data were collected at 25° C. at either a Biacore instrument (Cytiva AB, Uppsala) or a Bruker SPR32 (Bruker Daltonics). Data were analysed according to a 1:1 model using either BiaEvaluation or Biacore Insight Evaluation (Cytiva AB, Uppsala) or Bruker Analyser (Bruker Daltonics).

| Binder | Kd | koff | kon |
| --- | --- | --- | --- |
| B16 | 0.0523 nM | 0.000348 s⁻¹ | 6.66e+06 M⁻¹ s⁻¹ |
| B17 | 0.00721 nM | 0.000147 s⁻¹ | 2.03e+07 M⁻¹ s⁻¹ |
| B20 | 0.0161 nM and 0.0214 nM | 7.82e-05 s⁻¹ and 9.95e-05 s⁻¹ | 4.94e+06 M⁻¹ s⁻¹ and 4.65e+06 M⁻¹ s⁻¹ |
| B21 | 0.0191 nM and 0.0208 nM | 0.000108 s⁻¹ and 9.33e-05 s⁻¹ | 4.48e+06 M⁻¹ s⁻¹ and 5.68e+06 M⁻¹ s⁻¹ |
| B22 | 0.0175 nM | 0.000154 s⁻¹ | 8.82e+06 M⁻¹ s⁻¹ |
| B23 | 0.00321 nM | 0.000132 s⁻¹ | 4.12e+07 M⁻¹ s⁻¹ |
| B24 |  | 0.00014 s⁻¹ and 0.000208 s⁻¹ and 0.000137 s⁻¹ | 2.59e+07 M⁻¹ s⁻¹ and 1.05e+07 M⁻¹ s⁻¹ and 2.03e+07 M⁻¹ s⁻¹ |
| B25 | 0.00755 nM | 0.000163 s⁻¹ | 2.16e+07 M⁻¹ s⁻¹ |
| B26 | 0.0252 nM and 0.0338 nM | 0.000127 s⁻¹ and 0.000154 s⁻¹ | 5.05e+06 M⁻¹ s⁻¹ and 4.56e+06 M⁻¹ s⁻¹ |
| B27 | 0.0221 nM and 0.0296 nM | 0.000101 s⁻¹ and 0.000123 s⁻¹ | 4.58e+06 M⁻¹ s⁻¹ and 4.16e+06 M⁻¹ s⁻¹ |
| B28 | 0.0159 nM and 0.0214 nM | 7.82e-05 s⁻¹ and 9.95e-05 s⁻¹ | 4.94e+06 M⁻¹ s⁻¹ and 4.65e+06 M⁻¹ s⁻¹ |
| B29 | 0.0187 nM and 0.0218 nM and 0.0223 nM | 8.71e-05 s⁻¹ and 0.000105 s⁻¹ and 0.000101 s⁻¹ | 4.66e+06 M⁻¹ s⁻¹ and 4.82e+06 M⁻¹ s⁻¹ and 4.53e+06 M⁻¹ s⁻¹ |
| B30 | 0.00508 nM | 0.00013 s⁻¹ | 2.56e+07 M⁻¹ s⁻¹ |
| B31 | 0.0142 nM and 0.0191 nM | 6.98e-05 s⁻¹ and 9.08e-05 s⁻¹ | 4.9e+06 M⁻¹ s⁻¹ and 4.75e+06 M⁻¹ s⁻¹ |
| B32 | 0.0543 nM | 0.000216 s⁻¹ | 7.36e+06 M⁻¹ s⁻¹ |
| B33 | 0.0637 nM and 0.0454 nM | 0.000364 s⁻¹ and 0.000371 s⁻¹ | 5.67e+06 M⁻¹ s⁻¹ and 8.18e+06 M⁻¹ s⁻¹ |
